Measurements published in article PMC11364227.

Each substance was assayed against SARS-CoV-2 prototype-Beta RBD-dimer PB (two truncated RBDs, 329-537, in tandem) (SARS-CoV-2 (prototype) | SARS-CoV-2 (Beta variant)) (UniProt P0DTC2) (assay: SPR).
In the case of SA55, the Kd is reported as 6.6 nM.
For S2H97, the Kd was 1.6 nM.
Work on S309 yielded a Kd of 7.6 nM.
For S2K146, the Kd was 4 nM.
CR3022 was tested, and the Kd was 293 nM.
Work on C022 yielded a Kd of 5.1 nM.
XGv347 gave a Kd of 0.2 nM.
